Data reported in the supplement of paper PMC7877785.
± gives the uncertainty stated by the source.

Assay: self-splicing fitness, log relative to wild type (ln ratio); higher = more splicing; Tetrahymena group I intron in knt gene, E. coli kanamycin selection, DiMSum; sequences stand for … in CUCUCU…GGAGGGAAAAGUUAUCAGGCAUGCACCUGGUAGCUAGUCUUUAAACCAAUAGAUUGCAUCGGUUUAAAAGGCAAGACCGUCAAAUUGCGGGAAAGGGGUCAACAGCCGUUCAGUACCAAGUCUCAGGGGAAACUUUGAGAUGGCCUUGCAAAGGGUAUGGUAAUAAGCUGACGGACAUGGUCCUAACCACGCAGCCAAGUCCUAAGUCAACAGAUCUUCUGUUGAUAUGGAUGCAGUUCACAGACUAAAUGUCGGUCGGGGAAGAUGUAUUCUUCUCAUAAGAUAUAGUCGGACCUCUCCUUAAUGGGAGCUAGCGGAUGAAGUGAUGCAACACUGGAGCCGCUGGGAACUAAUUUGUAUGCGAAAGUAUAUUGAUUAGUUUUGGAGUACUCGUGGUCG
How it was run: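 Library with all eight P1ex-region intron nucleotides randomised, intron inside the knt kanamycin-resistance gene on pET-22b(+), in E. coli BL21(DE3). Cells grew overnight at 37°C or 30°C on LB agar with or without 25 μg/mL kanamycin (plus 100 μg/mL carbenicillin, 50 μM IPTG, 0.2% rhamnose), in six replicate transformations. Pooled colonies were amplicon-sequenced on Illumina HiSeq 2500. DiMSum fitness is the error-weighted combination of wild-type-normalised replicate fold changes, kanamycin versus none.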

Sequence | self-splicing fitness (ln) (30 °C) | self-splicing fitness (ln) (37 °C)
UGUCAGCAAUAUUACGGUGU | -2.06 ± 0.084 | -1.13 ± 0.1
ACCGAGCAAUAUUACGGUCU | -3.36 ± 0.1 | -1.62 ± 0.092
CCCUAGCAAUAUUACGGUGU | -3.05 ± 0.098 | -2.19 ± 0.11
AUCCAGCAAUAUUACGGGUG | -1.18 ± 0.049 | -0.904 ± 0.061
CACUAGCAAUAUUACGUCUG | -0.516 ± 0.058 | 0.214 ± 0.074
GAGCAGCAAUAUUACGUCGU | -1.35 ± 0.13 | -2.39 ± 0.2
GACGAGCAAUAUUACGAGCC | -2.73 ± 0.33 | 
UCUUAGCAAUAUUACGCCGG | -1.85 ± 0.26 | 0.459 ± 0.31
AGCGAGCAAUAUUACGGUAU | -3.18 ± 0.16 | -2.54 ± 0.22
CGCCAGCAAUAUUACGUUUG | -1.17 ± 0.049 | -0.629 ± 0.072
GCAGAGCAAUAUUACGCUCA | -1.66 ± 0.15 | -0.832 ± 0.15
AUAGAGCAAUAUUACGGCCA | -1.25 ± 0.15 | -1.02 ± 0.24
CAGAAGCAAUAUUACGAGUU | -3.32 ± 0.34 | -2.47 ± 0.3
ACCUAGCAAUAUUACGUGUG | -1.28 ± 0.057 | -0.808 ± 0.064
GAUAAGCAAUAUUACGUAAC | -1.22 ± 0.1 | -0.811 ± 0.16
GGUUAGCAAUAUUACGACGG | -2.32 ± 0.17 | -1.33 ± 0.22
CUUGAGCAAUAUUACGACAC |  | -3.08 ± 0.47
GACCAGCAAUAUUACGGAGA | -1.25 ± 0.078 | -0.461 ± 0.088
UUGGAGCAAUAUUACGUGUU | -2.58 ± 0.2 | -2.79 ± 0.33
UACUAGCAAUAUUACGUGUG | -1.37 ± 0.067 | -0.828 ± 0.072
AAUCAGCAAUAUUACGUCCG | -1.59 ± 0.085 | -0.00732 ± 0.11
ACAUAGCAAUAUUACGAGAA | -2.62 ± 0.29 | -2.35 ± 0.25
AGAAAGCAAUAUUACGCGGU | -3.13 ± 0.17 | -1.92 ± 0.21
CAGGAGCAAUAUUACGUUGU | -3.34 ± 0.17 | -2.26 ± 0.19
AGACAGCAAUAUUACGGACG | -1.14 ± 0.066 | -0.531 ± 0.071

Sequence | self-splicing fitness (ln) (30 °C) | self-splicing fitness (ln) (37 °C)
CAUCAGCAAUAUUACGCGGC | -3.39 ± 0.2 | -2.8 ± 0.29
CUCGAGCAAUAUUACGCCUU | -2.45 ± 0.15 | -2.72 ± 0.37
CAGGAGCAAUAUUACGUGGG | -2.85 ± 0.18 | -2.31 ± 0.15
AAUGAGCAAUAUUACGCGCU |  | -1.72 ± 0.37
GAGCAGCAAUAUUACGAGAG |  | -2.19 ± 0.28
AGAGAGCAAUAUUACGCUGC | -2.3 ± 0.23 | -2.63 ± 0.34
GCAGAGCAAUAUUACGUACC | -1.95 ± 0.17 | -0.941 ± 0.19
GCUCAGCAAUAUUACGACAC | -0.687 ± 0.098 | 0.564 ± 0.15
GUCCAGCAAUAUUACGAGUU | -1.98 ± 0.095 | -1.26 ± 0.091
CCCCAGCAAUAUUACGAACG | -3.44 ± 0.2 | -2.19 ± 0.18
CAGUAGCAAUAUUACGCUUU | -4.27 ± 0.24 | -1.93 ± 0.17
AGCGAGCAAUAUUACGGGUC | -2.01 ± 0.13 | -2.66 ± 0.25
CCACAGCAAUAUUACGUAAU | -3.17 ± 0.13 | -2.41 ± 0.2
GAAUAGCAAUAUUACGGGGG | -2.93 ± 0.26 | -1.87 ± 0.25
UACCAGCAAUAUUACGCUUC | -3.17 ± 0.23 | -2.3 ± 0.24
AUUUAGCAAUAUUACGGAAU | -2.62 ± 0.28 | -2.49 ± 0.26
AUCCAGCAAUAUUACGCCGA | -1.37 ± 0.1 | -0.75 ± 0.14
CGCAAGCAAUAUUACGAUCC | -1.71 ± 0.12 | -1.36 ± 0.19
AGGCAGCAAUAUUACGGAUG | -2.3 ± 0.1 | -2.58 ± 0.21
UCCAAGCAAUAUUACGCGGG | -3.94 ± 0.24 | -3.8 ± 0.36
GCUCAGCAAUAUUACGCUGU | -1.22 ± 0.073 | -0.159 ± 0.081
GAGAAGCAAUAUUACGCUGG | -2.87 ± 0.41 | -1.64 ± 0.41
CGCUAGCAAUAUUACGUCAC | -4.44 ± 0.42 | -3.4 ± 0.37
UAUGAGCAAUAUUACGGAUU | -2.96 ± 0.28 | -2.28 ± 0.31
GUGCAGCAAUAUUACGGACU | -1.28 ± 0.11 | -0.884 ± 0.14

Sequence | self-splicing fitness (ln) (30 °C) | self-splicing fitness (ln) (37 °C)
CCCUAGCAAUAUUACGGCUU | -3.76 ± 0.18 | -2.26 ± 0.18
GCAGAGCAAUAUUACGUCCC |  | -1.04 ± 0.34
CAAUAGCAAUAUUACGCGGC | -3.91 ± 0.37 | 
AUCUAGCAAUAUUACGUGUC | -3.9 ± 0.36 | -2.64 ± 0.24
CGCUAGCAAUAUUACGUCGU | -3.7 ± 0.37 | -2.87 ± 0.23
AUCCAGCAAUAUUACGUCAA | -1.99 ± 0.1 | -1.54 ± 0.098
GAAGAGCAAUAUUACGUGUU | -4.18 ± 0.23 | -2.12 ± 0.18
CCAAAGCAAUAUUACGACCU | -3.31 ± 0.21 | -3.23 ± 0.38
CAAGAGCAAUAUUACGGUAA | -3.24 ± 0.23 | -2.14 ± 0.21
ACAGAGCAAUAUUACGCCAA | -2.92 ± 0.22 | -2.78 ± 0.32
AAGAAGCAAUAUUACGCAGC | -3.17 ± 0.38 | -2.12 ± 0.22
ACCUAGCAAUAUUACGAGGC | -1.58 ± 0.18 | -2.64 ± 0.25
CUCCAGCAAUAUUACGGCUU | -1.73 ± 0.19 | -2.76 ± 0.31
CACCAGCAAUAUUACGUGCG | -0.627 ± 0.04 | -0.299 ± 0.056
AUAGAGCAAUAUUACGAACA | -1.9 ± 0.16 | -1.09 ± 0.25
AGUGAGCAAUAUUACGUAUA | -2.18 ± 0.25 | -2.72 ± 0.27
GCGUAGCAAUAUUACGACAU | -0.276 ± 0.014 | -0.025 ± 0.033
CAUAAGCAAUAUUACGUAAC | -3.03 ± 0.23 | -2.1 ± 0.26
AAGAAGCAAUAUUACGGCUA | -0.552 ± 0.077 | -0.0286 ± 0.1
AAAUAGCAAUAUUACGCGUG | -1.11 ± 0.078 | -0.804 ± 0.11
GUUUAGCAAUAUUACGGUUA | -1.68 ± 0.18 | -0.49 ± 0.12
AUGAAGCAAUAUUACGUUAG | -1.97 ± 0.08 | -0.415 ± 0.11
CGCGAGCAAUAUUACGACUA | -2.42 ± 0.23 | -2.64 ± 0.25
GGAGAGCAAUAUUACGGGCA | -2.49 ± 0.24 | -1.22 ± 0.21
GGCUAGCAAUAUUACGGCGA | -0.177 ± 0.13 | 0.0471 ± 0.14

Sequence | self-splicing fitness (ln) (30 °C) | self-splicing fitness (ln) (37 °C)
AAGUAGCAAUAUUACGGAAC | -1.4 ± 0.49 | -1.46 ± 0.25
UAGUAGCAAUAUUACGCUAG | -1.09 ± 0.23 | 0.812 ± 0.24
GCAGAGCAAUAUUACGUAGU | -3.3 ± 0.28 | -3.09 ± 0.37
CGGGAGCAAUAUUACGCUUG |  | -2.34 ± 0.31
GCGAAGCAAUAUUACGCACG | -2.58 ± 0.21 | -3.6 ± 0.35
AAGGAGCAAUAUUACGUUAG | -3.67 ± 0.18 | -2.95 ± 0.22
CCUAAGCAAUAUUACGUACA | -3.4 ± 0.5 | -2.9 ± 0.38
CGAGAGCAAUAUUACGCUUC | -2.04 ± 0.37 | -1.61 ± 0.31
AUUGAGCAAUAUUACGCACU | -0.165 ± 0.14 | -0.756 ± 0.15
AUGGAGCAAUAUUACGUGCG | -3.44 ± 0.32 | -1.8 ± 0.23
CCAUAGCAAUAUUACGCCAC |  | -1.75 ± 0.49
UGAGAGCAAUAUUACGAAAA |  | 0.153 ± 0.41
CCUUAGCAAUAUUACGGGCU | -4.07 ± 0.28 | -2.87 ± 0.22
UUCAAGCAAUAUUACGCUGA | -2.5 ± 0.16 | -2.33 ± 0.21
UUAGAGCAAUAUUACGUCGC | -3.05 ± 0.47 | -1.76 ± 0.37
UAGAAGCAAUAUUACGAUCG | 0.151 ± 0.093 | 0.149 ± 0.11
CAUAAGCAAUAUUACGGUGA | -3.65 ± 0.27 | -2.36 ± 0.23
UACAAGCAAUAUUACGUUAU | -3.39 ± 0.19 | -1.81 ± 0.1
CGUUAGCAAUAUUACGUGCG | -3.7 ± 0.14 | -2.71 ± 0.15
UCACAGCAAUAUUACGGUGG | -3.45 ± 0.14 | -2.71 ± 0.18
GCGAAGCAAUAUUACGCUGG | -1.61 ± 0.13 | -2.73 ± 0.22
UUCUAGCAAUAUUACGGAUU | -2.7 ± 0.15 | -0.761 ± 0.14
GACCAGCAAUAUUACGACUU | 0.432 ± 0.065 | 0.163 ± 0.076
